Assay [1] deals with human CD22 (human) (UniProt P20273). Briefly: flow cytometry, RL cells, 10 µg/mL. A general note: A flow cytometer gives signals particle by particle.
Assay [2] has the same target. Nature of the assay: flow cytometry, REH cells, 10 µg/ml.
The target is the same in assay [3]. Nature of the assay: flow cytometry, Raji cells, 10 µg/mL.
The target is the same in assay [4]. Briefly: flow cytometry, Daudi cells, 10 µg/mL.
For assay [5] the target is unchanged. Briefly: flow cytometry, Ramos cells, 10 µg/mL.
For assay [6] the target is unchanged. Nature of the assay: flow cytometry, Daudi cells, 10 µg/ml.

Regarding isotype control antibody human IgG, the MFI stood at 12.8 in assay [1]; 4.5 in assay [2]; 6.2 in assay [3]; 8.3 in assay [4]; 5.4 in assay [5]; 26.1 in assay [6].

Values taken from patent US20160015831A1.
